Results taken from article PMC3909490.

Biological target: FITC-casein (UniProt P02662)
Assay: fluorescence polarisation

UniProt P02662, sequence (P02662 16-214): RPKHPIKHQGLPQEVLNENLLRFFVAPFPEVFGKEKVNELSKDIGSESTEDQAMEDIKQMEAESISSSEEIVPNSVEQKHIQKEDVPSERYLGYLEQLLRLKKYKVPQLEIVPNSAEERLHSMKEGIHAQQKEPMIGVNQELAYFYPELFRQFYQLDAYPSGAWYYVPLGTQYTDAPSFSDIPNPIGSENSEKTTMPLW

Hsp104^WT (from UniProt P31539 1-908) (natural protein)
Kd: 65 nM

Hsp104^A503V (from UniProt P31539 1-908) (natural protein)
Kd: 80 nM
